# From US20190262431
# T1: recombinant Shp-2
# T1 sequence (Q06124 2-593, species assumed, looked up): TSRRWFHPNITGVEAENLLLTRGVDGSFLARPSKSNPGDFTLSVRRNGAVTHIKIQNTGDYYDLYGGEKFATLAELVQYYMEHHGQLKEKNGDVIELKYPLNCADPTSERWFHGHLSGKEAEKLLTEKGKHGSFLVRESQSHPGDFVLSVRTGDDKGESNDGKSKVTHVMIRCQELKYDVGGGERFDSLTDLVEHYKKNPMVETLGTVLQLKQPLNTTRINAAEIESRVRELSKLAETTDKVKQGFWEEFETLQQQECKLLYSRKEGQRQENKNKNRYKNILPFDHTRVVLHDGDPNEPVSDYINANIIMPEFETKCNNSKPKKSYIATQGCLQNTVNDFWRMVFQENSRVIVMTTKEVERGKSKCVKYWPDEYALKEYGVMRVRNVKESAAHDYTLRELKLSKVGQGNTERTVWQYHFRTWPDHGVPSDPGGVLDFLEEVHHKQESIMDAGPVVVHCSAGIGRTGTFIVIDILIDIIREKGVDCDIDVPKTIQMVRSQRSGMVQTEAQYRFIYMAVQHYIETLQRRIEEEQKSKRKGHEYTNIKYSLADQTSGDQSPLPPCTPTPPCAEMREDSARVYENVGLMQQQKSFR
# How the values were obtained:
# [1] = target: active (phosphorylated) human Syk (Merck Millipore), P43405
# recombinant Shp-2 = target: T1, recombinant Shp-2
# [2] = target: inactive (non-phosphorylated) human Syk-GST (Life technologies), P43405
Protein,in vitro poly-ubiquitination of recombinant active Syk (Western blot) [1],in vitro poly-ubiquitination of recombinant Shp-2 (recombinant Shp-2),in vitro poly-ubiquitination of inactive Syk (Syk-GST) (Western blot) [2],in vitro poly-ubiquitination of active Syk (Western blot) [1]
full length human Cbl-b (Abnova) (protein) MANSMNGRNPGGRGGNPRKGRILGIIDAIQDAVGPPKQAAADRRTVEKTWKLMDKVVRLCQNPKLQLKNSPPYILDILPDTYQHLRLILSKYDDNQKLAQLSENEYFKIYIDSLMKKSKRAIRLFKEGKERMYEEQSQDRRNLTKLSLIFSHMLAEIKAIFPNGQFQGDNFRITKADAAEFWRKFFGDKTIVPWKVFRQCLHEVHQISSGLEAMALKSTIDLTCNDYISVFEFDIFTRLFQPWGSILRNWNFLAVTHPGYMAFLTYDEVKARLQKYSTKPGSYIFRLSCTRLGQWAIGYVTGDGNILQTIPHNKPLFQALIDGSREGFYLYPDGRSYNPDLTGLCEPTPHDHIKVTQEQYELYCEMGSTFQLCKICAENDKDVKIEPCGHLMCTSCLTAWQESDGQGCPFCRCEIKGTEPIIVDPFDPRDEGSRCCSIIDPFGMPMLDLDDDDDREESLMMNRLANVRKCTDRQNSPVTSPGSSPLAQRRKPQPDPLQIPHLSLPPVPPRLDLIQKGIVRSPCGSPTGSPKSSPCMVRKQDKPLPAPPPPLRDPPPPPPERPPPIPPDNRLSRHIHHVESVPSRDPPMPLEAWCPRDVFGTNQLVGCRLLGEGSPKPGITASSNVNGRHSRVGSDPVLMRKHRRHDLPLEGAKVFSNGHLGSEEYDVPPRLSPPPPVTTLLPSIKCTGPLANSLSEKTRDPVEEDDDEYKIPSSHPVSLNSQPSHCHNVKPPVRSCDNGHCMLNGTHGPSSEKKSNIPDLSIYLKGDVFDSASDPVPLPPARPPTRDNPKHGSSLNRTPSDYDLLIPPLGEDAFDALPPSLPPPPPPARHSLIEHSKPPGSSSRPSSGQDLFLLPSDPFVDLASGQVPLPPARRLPGENVKTNRTSQDYDQLPSCSDGSQAPARPPKPRPRRTAPEIHHRKPHGPEAALENVDAKIAKLMGEGYAFEEVKRALEIAQNNVEVARSILREFAFPPPVSPRLNL,robust poly-ubiquitination of recombinant active Syk was observed,No poly-ubiquitination of recombinant Shp-2 was detected in these assays,–,–
"human Cbl-b^29-483 (recombinant, GST fusion protein) (protein) IQDAVGPPKQAAADRRTVEKTWKLMDKVVRLCQNPKLQLKNSPPYILDILPDTYQHLRLILSKYDDNQKLAQLSENEYFKIYIDSLMKKSKRAIRLFKEGKERMYEEQSQDRRNLTKLSLIFSHMLAEIKAIFPNGQFQGDNFRITKADAAEFWRKFFGDKTIVPWKVFRQCLHEVHQISSGLEAMALKSTIDLTCNDYISVFEFDIFTRLFQPWGSILRNWNFLAVTHPGYMAFLTYDEVKARLQKYSTKPGSYIFRLSCTRLGQWAIGYVTGDGNILQTIPHNKPLFQALIDGSREGFYLYPDGRSYNPDLTGLCEPTPHDHIKVTQEQYELYCEMGSTFQLCKICAENDKDVKIEPCGHLMCTSCLTAWQESDGQGCPFCRCEIKGTEPIIVDPFDPRDEGSRCCSIIDPFGMPMLDLDDDDDREESLMMNRLANVRKCTDRQNSPVTSPGS",–,–,non-phosphorylated recombinant Syk showed strongly diminished poly-ubiquitination by Cbl-d^29-483,still exhibited poly-ubiquitination activity towards Syk
